Experimental data from article PMC3907290, “De Novo Prediction of PTBP1 Binding and Splicing Targets Reveals Unexpected Features of Its RNA Recognition and Function”.

Molecular target: PTBP1 (Homo sapiens, UniProt P26599 1-557)
Assay: EMSA; apparent Kd; tRNA competitor; EMSA, 10 uL: 6 uL DG buffer (20 mM Hepes-KOH pH 7.9, 20% glycerol, 80 mM K-glutamate, 0.2 mM EDTA, 0.2 mM PMSF), about 2.2 mM MgCl2, 0.05 mg/ml tRNA, RNaseOut
Settings: protein: recombinant; label: 32P (alpha-32P UTP, internal)

Sequence of PTBP1 (P26599 whole entry): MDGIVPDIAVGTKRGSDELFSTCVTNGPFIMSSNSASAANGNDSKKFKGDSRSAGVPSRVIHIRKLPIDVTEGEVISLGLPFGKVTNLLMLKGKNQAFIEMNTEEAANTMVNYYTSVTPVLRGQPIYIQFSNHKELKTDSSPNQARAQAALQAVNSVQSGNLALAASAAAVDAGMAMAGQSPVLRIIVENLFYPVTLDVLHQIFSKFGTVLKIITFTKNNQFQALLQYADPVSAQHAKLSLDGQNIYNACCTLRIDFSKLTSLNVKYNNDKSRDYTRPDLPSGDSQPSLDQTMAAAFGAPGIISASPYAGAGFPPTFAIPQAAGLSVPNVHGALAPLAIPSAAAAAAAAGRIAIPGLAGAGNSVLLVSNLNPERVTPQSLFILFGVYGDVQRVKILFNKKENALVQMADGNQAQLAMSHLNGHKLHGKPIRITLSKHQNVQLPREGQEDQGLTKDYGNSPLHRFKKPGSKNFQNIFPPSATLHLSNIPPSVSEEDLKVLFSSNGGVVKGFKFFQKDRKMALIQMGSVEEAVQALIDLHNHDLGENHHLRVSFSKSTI

B1: probe 10 (ssRNA)
RNA: GUGAGGGCUCUUUCUUCGUGGGACCGUAGAUAGGUAGCUGCUGCUGGUCUCACACUGUUCUCCCUACAG
Kd: 73 nM
